Laboratory results reported in paper PMC4725753.

Molecular target: the microbial proteins (competition ELISA with heparin, data not shown)
Experiment: ELISA; data not shown; immobilised microbial proteins incubated with vitronectin (5 μg/ml) that was pre-incubated with heparin (10 μM)

**Q.** “vitronectin purified from human plasma (natural protein)” was tested. Which percent inhibition by heparin (10 μM) did it give?
**A.** The percent inhibition by heparin (10 μM) was 68 to 89%.
